Data on 1 molecule can be found in patent publication US7105647 (WISCONSIN ALUMNI RESEARCH FOUNDATION, dated 2006).

Test [1] addresses T1, AH receptor nuclear translocator (ARNT), full length (human, UniProt P27540 1-789).
T1 construct: Full length: in vitro translated, expressed in yeast (PL574) or transfected; Endogenous ARNT in the Hep3B experiment; also called huARNT; hARNT
Put plainly: yeast two-hybrid with full-length ARNT, lacZ reporter. The text has this: (§1) This plasmid was designated PL371, and subsequently was digested with NotI and XhoI, this fragment cloned into the corresponding sites of pSGBCU11. This clone was designated PL574. The LexAMOP fusion protein constructs were cotransformed with a yeast expression vector containing the full length AHR or ARNT into L40, a yeast strain containing integrated lacZ and HIS3 reporter genes. As controls, LexAAHR and LexAARNT were cotransformed with AHR and ARNT. The strength of interaction was visually characterized by X-Gal (5-bromo-4-chloro-3-indolyl-(-D-galactoside) plate assays, performed after three days growth on selective media (Bohen et al, Proc. Natl. Acad. Sci. USA 90: 11424–11428, 1993). To provide quantitation of the interaction strength, multiple colonies from yeast harboring each bHLH-PAS combination colonies were grown overnight in liquid media. Liquid cultures were grown for 5 hours, and assayed for lacZ activity using the Galacto-Light chemiluminescence reporter system (Tropix, Bedford, Mass.). To determine the effect of AHR agonists on these interactions, yeast were also grown on plates or in liquid culture with and without 1 μM βNF (Carver et al., J. Biol. Chem. 269: 30109–30112, 1994).
(§2) 2. Interaction of MOPs with the AHR and ARNT in vivo; Yeast two-hybrid experiments. […]

Test [2] concerns the target T2, human aryl hydrocarbon receptor (AHR), full length (human, UniProt P35869 1-848).
T2 construct: Full length in yeast (PRSAHR) and in the Hsp90 co-IP (huAHR); also called huAHR; Ah receptor
T2 sequence (looked up): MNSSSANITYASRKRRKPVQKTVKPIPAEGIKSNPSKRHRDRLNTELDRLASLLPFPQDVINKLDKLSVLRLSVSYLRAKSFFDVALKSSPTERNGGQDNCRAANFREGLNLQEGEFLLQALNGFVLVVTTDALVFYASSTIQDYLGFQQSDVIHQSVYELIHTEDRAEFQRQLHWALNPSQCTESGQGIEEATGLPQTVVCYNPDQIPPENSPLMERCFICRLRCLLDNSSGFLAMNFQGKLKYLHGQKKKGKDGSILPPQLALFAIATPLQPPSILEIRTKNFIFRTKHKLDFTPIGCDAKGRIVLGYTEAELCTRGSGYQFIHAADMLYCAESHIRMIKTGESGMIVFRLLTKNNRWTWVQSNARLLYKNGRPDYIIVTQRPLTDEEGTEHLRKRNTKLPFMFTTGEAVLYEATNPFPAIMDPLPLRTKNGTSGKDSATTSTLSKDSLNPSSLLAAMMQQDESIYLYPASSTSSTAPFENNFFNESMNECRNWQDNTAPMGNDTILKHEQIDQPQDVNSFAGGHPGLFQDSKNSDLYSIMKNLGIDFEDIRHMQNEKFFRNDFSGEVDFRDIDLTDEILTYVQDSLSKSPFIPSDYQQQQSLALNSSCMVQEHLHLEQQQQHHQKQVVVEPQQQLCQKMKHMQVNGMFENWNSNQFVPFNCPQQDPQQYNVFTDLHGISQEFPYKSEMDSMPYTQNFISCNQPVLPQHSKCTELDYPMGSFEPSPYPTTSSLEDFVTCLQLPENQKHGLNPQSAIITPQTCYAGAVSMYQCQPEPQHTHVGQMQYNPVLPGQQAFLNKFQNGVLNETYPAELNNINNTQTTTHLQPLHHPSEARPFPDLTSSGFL
Nature of the test: yeast two-hybrid, lacZ reporter, with and without 1 µM βNF.
Description: as §1, §2

T1 sequence (P27540 whole entry): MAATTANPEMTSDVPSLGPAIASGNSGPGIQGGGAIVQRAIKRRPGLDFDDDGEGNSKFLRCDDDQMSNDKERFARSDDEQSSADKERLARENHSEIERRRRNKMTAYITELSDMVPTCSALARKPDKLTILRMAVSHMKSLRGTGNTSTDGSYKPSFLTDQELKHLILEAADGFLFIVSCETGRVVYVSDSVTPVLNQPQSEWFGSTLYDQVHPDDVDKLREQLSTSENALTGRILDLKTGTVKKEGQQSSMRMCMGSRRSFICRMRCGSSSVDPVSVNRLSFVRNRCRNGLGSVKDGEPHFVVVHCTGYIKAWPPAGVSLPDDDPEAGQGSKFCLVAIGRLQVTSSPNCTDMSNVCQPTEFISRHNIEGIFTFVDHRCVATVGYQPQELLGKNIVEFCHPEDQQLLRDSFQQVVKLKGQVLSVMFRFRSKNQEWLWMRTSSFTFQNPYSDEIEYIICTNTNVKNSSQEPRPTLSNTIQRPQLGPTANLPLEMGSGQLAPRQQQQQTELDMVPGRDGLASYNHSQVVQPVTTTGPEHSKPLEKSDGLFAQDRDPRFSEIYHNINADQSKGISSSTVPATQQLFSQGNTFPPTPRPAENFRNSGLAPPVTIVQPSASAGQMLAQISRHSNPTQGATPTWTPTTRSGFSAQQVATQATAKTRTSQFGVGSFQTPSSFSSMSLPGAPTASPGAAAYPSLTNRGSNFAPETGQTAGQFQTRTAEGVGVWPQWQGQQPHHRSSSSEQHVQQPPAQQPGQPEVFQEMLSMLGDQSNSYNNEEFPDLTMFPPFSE

B1: LexAMOP4 (other)
chain: MKALTARQQEVFDLIRDHISQTGMPPTRAEIAQRLGFRSPNAAEEHLKALARKGVIEIVSGASRGIRLLQEEEEGLPLVGRVAAGEPLLAQQHIEGHYQVDPSLFKPNADFLLRVSGMSMKDIGIMDGDLLAVHKTQDVRNGQVVVARIDDEVTVKRLKKQGNKVELLPENSEFKPIVVDLRQQSFTIEGLAVGVIRNGDWLMDEDEKDRAKRASRNKSEKKRRDQFNVLIKELSSMLPGNTRKMDKTTVLEEVIGFLQKHNEVSAQTEICDIQQDWKPSFLSNEEFTQLMLEALDGFIIAVTTDGSIIYVSDSITPLLGHLPSDVMDQNLLNFLPEQEHSEVYKILSSHMLVTDSPSPEYLKSDGDLEFYCHLLRGSLNPKEFPTYEYIKFVGNFRSYNNVPSPSCNGFDNTLSRPCRVPLGKEVCFIATVRLATPQFLKEMCIVDEPLEEFTSRHSLEWKFLFLDHRAPPIIGYLPFEVLGTSGYDYYHIDDLELLARCHQHLMQFGKGKSCCYRFLTKGQQWIWLQTHYYITYHQWNSKPEFIVCTHSVVSYADVRVERRQELA
notes: range 1-202; also called LexAbHLH-PAS fusion of MOP4; MOP4 bait plasmid
Take B1: the binding result in test [1] and in test [2] was “no binding” each time.
